# Measurements as given in patent publication US20260008815A1, “CYCLIC PEPTIDE OR SALT THEREOF, AND USES THEREOF” (FUJIFILM Corporation, priority 2023, published 2026).
# Bridge positions count the residues as written; N and C are the ends. Ends that are not written are not given here. COCH2 = acetyl group that carries the bridge
# B1: cyclic peptide SEQ ID NO: 402 (peptide)
# peptide: PCEVYNYWYPTQWFFFTQFK(COCH2)K
# modifications: thioether 2-20; not fully specified; printed as P-(C)-EVYNYWYPTQWFFFTQF-(K(acetyl))-K
# B2: cyclic peptide SEQ ID NO: 404 (peptide)
# peptide: DCIRPYDQLQLIYQYLYQLK(COCH2)K
# modifications: thioether 2-20; not fully specified; printed as D-(C)-IRPYDQLQLIYQYLYQL-(K(acetyl))-K
# Molecular target: T1, Recombinant Human FGFR2 alpha (IIIc) Fc Chimera Protein, CF (R&D systems, 712-FR-050) (human, UniProt P21802 22-377)
# T1 construct: bought; not shown: Fc part of the chimera
# T1 sequence (P21802 22-377, change not shown): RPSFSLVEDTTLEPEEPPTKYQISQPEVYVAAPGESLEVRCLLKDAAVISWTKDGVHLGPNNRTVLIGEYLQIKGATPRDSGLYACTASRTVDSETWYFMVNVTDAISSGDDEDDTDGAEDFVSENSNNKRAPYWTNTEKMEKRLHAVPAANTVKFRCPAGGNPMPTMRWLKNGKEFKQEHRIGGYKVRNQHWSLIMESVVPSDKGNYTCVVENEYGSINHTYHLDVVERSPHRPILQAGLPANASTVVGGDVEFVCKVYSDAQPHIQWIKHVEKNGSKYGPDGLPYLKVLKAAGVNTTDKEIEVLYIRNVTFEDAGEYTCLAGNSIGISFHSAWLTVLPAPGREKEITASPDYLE
# Assay: ELISA on plate-bound FGFR2-Fc
# In short: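 Peptide binding scored by category from dose-response of background-corrected luminescence (FGFR-coated minus uncoated wells). Detection via anti-Myc antibody (2 h, room temperature) after 3 h peptide incubation on wells coated with 5 ng FGFR2 alpha (IIIc)-Fc.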
row,Binder,"ELISA luminescence signal at 10 nmol/L peptide, relative to SEQ ID NO: 47 (=1) [ratio]"
1,VCQQDNYFYPQQWFFFVHYK(COCH2)H (thioether 2-20) [cyclic peptide SEQ ID NO: 400],≥ 0.7
2,QCEYALQYYRFYVAQRHWVDK(COCH2)L (thioether 2-21 (inferred)) [cyclic peptide SEQ ID NO: 412],0.1 to 0.5
3,LCVQGNYQNPTQWYYFQLYK(COCH2)W (thioether 2-20 (inferred)) [cyclic peptide SEQ ID NO: 407],0.5 to 0.7
4,YCEAQPYYFQLYRLWHRQEK(COCH2)P (thioether 2-20 (inferred)) [cyclic peptide SEQ ID NO: 420],0.1 to 0.5
5,HCSQHQTTYYQIYAYLHAIK(COCH2)I (thioether 2-20 (inferred)) [cyclic peptide SEQ ID NO: 408],0.1 to 0.5
6,YCDWVEVANARQLAYYTLYRK(COCH2)K (thioether 2-21) [cyclic peptide SEQ ID NO: 415],0.1 to 0.5
7,RCHHNFHHARQHGFFYHYK(COCH2)R (thioether 2-19) [cyclic peptide SEQ ID NO: 388],0.1 to 0.5
8,RCHHNFHHARQHRFFHHYK(COCH2)R (thioether 2-19) [cyclic peptide SEQ ID NO: 387],0.1 to 0.5
9,RCHHNFHHARQWGFFHHYK(COCH2)R (thioether 2-19) [cyclic peptide SEQ ID NO: 386],0.5 to 0.7
10,RCHHNFHHARQHGFFWHYK(COCH2)R (thioether 2-19) [cyclic peptide SEQ ID NO: 389],0.1 to 0.5
11,WCFTEGIQSTVQLTYSYLYK(COCH2)L (thioether 2-20 (inferred)) [cyclic peptide SEQ ID NO: 423],0.1 to 0.5
12,DCLRQQVYQYLYILFQNDIAK(COCH2)D (thioether 2-21 (inferred)) [cyclic peptide SEQ ID NO: 418],0.1 to 0.5
13,ACRRANWIHPIQWFFFHVYK(COCH2)H (thioether 2-20) [cyclic peptide SEQ ID NO: 403],0.5 to 0.7
14,QCQFLNYVNHVQWHYFWVFK(COCH2)S (thioether 2-20) [cyclic peptide SEQ ID NO: 401],0.1 to 0.5
15,QCLTQRVYLRQLAYYRLYRK(COCH2)I (thioether 2-20 (inferred)) [cyclic peptide SEQ ID NO: 405],0.1 to 0.5
16,B1,≥ 0.7

row,Binder,"ELISA luminescence signal at 10 nmol/L peptide, relative to SEQ ID NO: 47 (=1) [ratio]"
1,QCAYYHLYQYLHQLK(COCH2)V (thioether 2-15) [cyclic peptide SEQ ID NO: 385],0.5 to 0.7
2,KCAPQNFINPVQWRYFQHYKN (thioether ring (C)-(K(acetyl))) [cyclic peptide SEQ ID NO: 70],0.5 to 0.7
3,WCQESSNYLAPLQWYFFNWYK(COCH2)T (thioether 2-21 (inferred)) [cyclic peptide SEQ ID NO: 410],≥ 0.7
4,LCTQFPASQRYYFALYRLWHK(COCH2)S (thioether 2-21 (inferred)) [cyclic peptide SEQ ID NO: 416],0.1 to 0.5
5,KCPQNFINPVQWRYFQHYAKN (thioether ring (C)-(K(acetyl))) [cyclic peptide SEQ ID NO: 69],0.1 to 0.5
6,YCNYEWDGARRQIAYYRIFLK(COCH2)L (thioether 2-21 (inferred)) [cyclic peptide SEQ ID NO: 414],0.1 to 0.5
7,DCHTREDWQIHHLYQLLYQLK(COCH2)Y (thioether 2-21 (inferred)) [cyclic peptide SEQ ID NO: 419],0.1 to 0.5
8,B2,0.1 to 0.5
9,LCNNWENYFDWLQWSYYIAYK(COCH2)E (thioether 2-21 (inferred)) [cyclic peptide SEQ ID NO: 409],≥ 0.7
10,QCDQDAIQWVYDLQYYRVWHK(COCH2)V (thioether 2-21 (inferred)) [cyclic peptide SEQ ID NO: 413],0.1 to 0.5
11,TCVDKDNWYNHVQWQYFFLYK(COCH2)Q (thioether 2-21) [cyclic peptide SEQ ID NO: 411],≥ 0.7
12,VCLDEQQALFHQYYRITRRK(COCH2)V (thioether 2-20 (inferred)) [cyclic peptide SEQ ID NO: 421],0.1 to 0.5
13,YCTQEQAFRQLAYYQIFRRSK(COCH2)S (thioether 2-21 (inferred)) [cyclic peptide SEQ ID NO: 422],0.1 to 0.5
14,PCEQQNFHSVIQWHFFAQYK(COCH2)N (thioether 2-20 (inferred)) [cyclic peptide SEQ ID NO: 406],≥ 0.7
15,LCQIYLYLTALQQGFEDFYPK(COCH2)N (thioether 2-21 (inferred)) [cyclic peptide SEQ ID NO: 417],0.1 to 0.5
